{"source": "patent US20200308299A1", "about": "“ANTI-GPC-1 ANTIBODY” (National University Corporation Kochi University, priority 2017, published 2020)", "key": {"[1]": {"test_system": "TE8, HeLa, ME180, BxPC3, and T3M4 cell strains", "experiment": "Internalization assay on GPC1 ADC (01a033), various GPC1 positive cell strains", "type": "cell-based", "details": "esophageal, pancreatic and cervical cancer derived cell strains, 37° C.", "procedure": "(§1) Detection was performed on cells treated with GPC1 ADC (01a033) MMAF with anti-GPC1 mAb (biotin-labeled 02b006) and PE-labeled streptavidin.\n(§2) TE8, HeLa, ME180, BxPC3, and T3M4 cell strains were detached and collected from a 10 cm plate using 0.02% EDTA. Cells were suspended in RPMI1640+10% FBS+100 U/ml penicillin+100 μg/ml streptomycin, and two 1.5 ml tubes were created at 1.0×10^6 cells/0.9 ml. To lower the internalization activity, the tubes were left standing on ice for 1 hour. 1 mg/ml of GPC1 ADC (01a033) MMAF was diluted to 24 μg/mL (160 nM) with ice-cooled RPMI1640+10% FBS+100 U/ml penicillin+100 μg/ml streptomycin. 100 μl of the ADC was added and suspended in the cell suspension and incubated on ice for 30 minutes to stain the antigens on the cell surface. After 30 minutes, the cell suspension was dispensed into 7 tubes each at 100 μl each. The cell suspension was separated into 4° C. incubation group and 37° C. incubation group in 14 tubes. The incubation times were 0.0 h, 1 h, 2 h, 3 h, 4 h, 6 h, 12 h, and 24 h. After reaching the incubation time, the cells were centrifuged at 1500 rpm at 4° C. for 5 minutes to remove the supernatant. The cells were washed with 100 μl of ice cooled PBS+0.2% BSA and subjected to centrifugation to wash the cells. Washing operation was performed three times in total. […]"}, "TE14 cell strain": {"test_system": "TE14 cell strain", "experiment": "In vivo antitumor effect of unlabeled anti-GPC1 antibody, TE14 graft in SCID mice", "design": "species or system mouse", "procedure": "Specifically, 2.0×10^6 cells of TE14 cell strain were subcutaneously grafted into female SCID mice (6 week old, n=9). When the tumor size reached about 100 mm^3 on about day 10 to 14 after grafting, administration of control mouse IgG2a (sigma, M7769) and anti-GPC1 antibody 01a033 each at 10 mg/kg was started, which were intraperitoneally administered on day 0, day 3, day 7, day 10, day 14, and day 17, with the day starting the administration considered 0 day. The tumor volume was measured on day 0, day 3, day 7, day 10, day 14, day 17, day 21, day 24, day 28, and day 31."}, "ME180 cells": {"test_system": "ME180 cells", "experiment": "In vitro ADC assay, ME180 cells", "type": "cell-based", "details": "ME180, 144 hours", "procedure": "(§3) Preparation of a conjugate of mouse anti-Glypican-1 mAb (01a033), mouse IgG2a (biolegend #400224) as a control, and mc-vc-PAB-MMAF was commissioned to MORADEC. An anticancer agent was conjugated to a cysteine residue via a cleavable linker. The DAR (drug-antibody ratio) was as follows. GPC1-CL-MMAF DAR=3.8, mouse IgG2a-CL-MMAF DAR=4.1.\n(§4) (1) The cells were seeded on Thermo Fisher Scientific's 96-well white plate (model no.: 136101) (90 μl cell suspension). RPMI1640+10% FBS+100 U/ml penicillin+100 μg/ml streptomycin was used as the medium. The cells were seeded in 60 wells, and 100 μL of medium was added to 36 wells, and cultured in a 5% CO2 incubator at 37° C. (2) The next day, 10 μL of ADC was added to the cells (total amount: 100 μL). (3) After 144 hours of culture, a CellTiter-Glo™ Luminescence Cell Viability Assay reagent (Promega) was added and mixed at 100 μL/well. (4) Measurements were taken with a plate reader. (5) Analysis was conducted with GraphPad Prism 6.\n(§5) The IC50 values were calculated from the following equation (Hossain M M, Hosono-Fukao T, Tang R, Sugaya N, van Kuppevelt T H, Jenniskens G J, Kimata K, Rosen S D, Uchimura K (2010) Direct detection of HSulf-1 and HSulf-2 activities on extracellular heparan sulphate and their inhibition by PI-88. Glycobiology 20(2): 175-186.)\n(§6) IC50=10^(Log [A][B]×(50−C)/(D−C)+Log [B]) […]"}, "TE8 cells": {"test_system": "TE8 cells", "experiment": "Internalization assay on GPC1 ADC (01a033), TE8 cells", "type": "cell-based", "details": "0-24 h", "procedure": "as §1, §2"}, "pancreatic cancer PDX": {"test_system": "pancreatic cancer PDX", "experiment": "In vivo efficacy test on GPC1 ADC using pancreatic cancer PDX in NOG mice", "design": "species or system mouse", "details": "1, 3, 10 mg/kg iv day 0, 4, 8, 12", "description": "Pancreatic cancer PDX (Patient-derived tumor xenograft) refers to residual tissue from pathological analysis of cancer tissue upon pancreatic cancer surgery from a pancreatic cancer patient. This Example used a pancreatic cancer model created by subcutaneously grafting in superimmunodeficient mice such as NOG mice. While human tumor hardly survives in SCID mice after grafting, NOG mice have more severe immunodeficiency than SCID mouse, so that human tumor is more likely to survive. For this reason, a PDX model has an environment that is closer to human tumor than a mouse model to which a cell strain is grafted. Thus, information obtained with a PDX model is useful in evaluating drug efficacy.\nFIG. 24 schematically depicts the test in this Example. Specifically, pancreatic cancer PDX was subcutaneously grafted into 6 week old female NOG mice. […] The tumor volume and body weight were measured on day 0, day 4, day 8, day 12, day 16, day 20, day 24, and day 28."}, "LK2 cells": {"test_system": "LK2 cells", "experiment": "In vitro ADC assay, LK2 cells", "type": "cell-based, human", "details": "144 hours; LK2 hardly express GPC1", "procedure": "as §3, §4, §5, §6"}}, "data": [{"molecule": "clone 01a033 (antibody) heavy: QVQLKQSGPELVKPGASVKISCKASGYSFTGYYMHWVKQSPEKSLEWIGEINPSTGDTTYNQKFKAKATLTVDKSSSTAYMQLKSLTSEDSAVYYCAREKRDDGVFAYWGQGTLVTVSSAKTTAPSVYPLAPVCGDTTGSSVTLGCLVKGYFPEPVTLTWNSGSLSSGVHTFPAVLQSDLYTLSSSVTVTSSTWPSQSITCNVAHPASSTKVDKKIEPRGPTIKPCPPCKCPAPNLLGGPSVFIFPPKIKDVLMISLSPIVTCVVVDVSEDDPDVQISWFVNNVEVHTAQTQTHREDYNSTLRVVSALPIQHQDWMSGKEFKCKVNNKDLPAPIERTISKPKGSVRAPQVYVLPPPEEEMTKKQVTLTCMVTDFMPEDIYVEWTNNGKTELNYKNTEPVLDSDGSYFMYSKLRVEKKNWVERNSYSCSVVHEGLHNHHTTKSFSRTPGK light: DIVMSQSPKSMSMSVGERVALSCKASENVGTYVSWYQQKPEQSPKLLIYGASNRYTGVPDRFTGSGSATDFTLTISSVQAEDLADYYCGQSYSYPLTFGAGTKLELKRADAAPTVSIFPPSSEQLTSGGASVVCFLNNFYPKDINVKWKIDGSERQNGVLNSWTDQDSKDSTYSMSSTLTLTKDEYERHNSYTCEATHKTSTSPIVKSFNRNEC", "values": [{"measurement": "internalization activity", "setting": "[1]", "result": "high internalization activity"}, {"measurement": "ADCC activity", "setting": "TE14 cell strain; concluded from the lack of in vivo antitumor effect", "result": "does not have ADCC activity"}, {"measurement": "antitumor effect (tumor volume, tumor weight day 31)", "setting": "TE14 cell strain; unlabeled antibody 10 mg/kg ip day 0, 3, 7, 10, 14, 17", "result": "no antitumor effect"}]}, {"molecule": "GPC1 ADC (conjugate) heavy: QVQLKQSGPELVKPGASVKISCKASGYSFTGYYMHWVKQSPEKSLEWIGEINPSTGDTTYNQKFKAKATLTVDKSSSTAYMQLKSLTSEDSAVYYCAREKRDDGVFAYWGQGTLVTVSSAKTTAPSVYPLAPVCGDTTGSSVTLGCLVKGYFPEPVTLTWNSGSLSSGVHTFPAVLQSDLYTLSSSVTVTSSTWPSQSITCNVAHPASSTKVDKKIEPRGPTIKPCPPCKCPAPNLLGGPSVFIFPPKIKDVLMISLSPIVTCVVVDVSEDDPDVQISWFVNNVEVHTAQTQTHREDYNSTLRVVSALPIQHQDWMSGKEFKCKVNNKDLPAPIERTISKPKGSVRAPQVYVLPPPEEEMTKKQVTLTCMVTDFMPEDIYVEWTNNGKTELNYKNTEPVLDSDGSYFMYSKLRVEKKNWVERNSYSCSVVHEGLHNHHTTKSFSRTPGK light: DIVMSQSPKSMSMSVGERVALSCKASENVGTYVSWYQQKPEQSPKLLIYGASNRYTGVPDRFTGSGSATDFTLTISSVQAEDLADYYCGQSYSYPLTFGAGTKLELKRADAAPTVSIFPPSSEQLTSGGASVVCFLNNFYPKDINVKWKIDGSERQNGVLNSWTDQDSKDSTYSMSSTLTLTKDEYERHNSYTCEATHKTSTSPIVKSFNRNEC", "values": [{"measurement": "effect of suppressing cell growth", "setting": "ME180 cells", "result": "exhibits an effect of suppressing cell growth"}, {"measurement": "residual amount of Glypican-1 on the cell surface", "setting": "TE8 cells; TE8, incubation at 4° C.", "result": "hardly changed"}, {"measurement": "Glypican-1 remaining on the cell surface", "setting": "TE8 cells; TE8, incubation at 37° C.", "result": "decreases with the passage of incubation time"}, {"measurement": "antitumor effect (tumor volume, tumor weight day 28)", "setting": "pancreatic cancer PDX", "result": "exhibited an antitumor effect"}, {"measurement": "antitumor effect against LK2 cells", "setting": "LK2 cells", "result": "hardly exhibited"}]}]}
